# Numbering of substitutions follows the chain as printed.
# B1: 372 (protein)
# chain: LDNGLARTPTMGWLHWERFMCNLDCQEEPDSCISEKLFMEMAEVMVSEGWKDAGYEYLCIDDCWMAPQRDSEGRLQADPQRFPHGIRQLANYVHSKGLKLGIYADVGNKTCAGFPGSFGYYDIDAQTFADWGVDLLKFDGCYCDSLENLADGYKHMSLALNRTGRSIVYSCEWPLYMWPFQKPNYTEIRQYCNHWRNFADIDDSWKSIKSILDWTSRNQERIVDVAGPGGWNDPDMLVIGNFGLSWDQQVTQMALWAIMAAPLFMSNDLRHISPQAKALLQDKDVIAINQDPLGKQGYQLRKGDNFEVWERPLSGDAWAVAIINRQEIGGPRSYTIPVASLGKGVACNPACFITQLLPVKRQLGFYNWTSRLKSHINPTGTVLLQLENTMQMSLKDLL
# modifications: Synthetic Polypeptide sequence of Variant No. 372 of mature Human GLA
# B2: 501 (protein)
# chain: LDNGLARTPTMGWLHWERFMCNLDCQEEPDSCISEKLFMEMAERMVSEGWKDAGYEYLCIDDCWMAPQRDSEGRLQADPQRFPHGIRQLANYVHSKGLKLGIYADVGNKTCAGFPGSFGYYDIDAQTFADWGVDLLKFDGCYCDSLENLADGYKHMSLALNRTGRSIVYSCEWPLYMWPFQKPNYTEIRQYCNHWRNFADIDDSWKSIKSILDWTSFNQERIVDVAGPGGWNDPDMLVIGNFGLSWNQQVTQMALWAIMAAPLFMSNDLRHISPQAKALLQDKDVIAINQDPLGKQGYQLRQGDNFEVWERPLSGLAWAVAMINRQEIGGPRSYTIAVASLGKGVACNPACFITQLLPVKRKLGFYEWTSRLRSHINPTGTVLLQLENTMQGSLKDLL
# modifications: Synthetic Polypeptide sequence of Variant No. 501 of mature Human GLA
# B3: 505 (protein)
# chain: B2 chain with G392N
# modifications: Synthetic Polypeptide sequence of Variant No. 505 of mature Human GLA
# B4: 508 (protein)
# chain: B2 chain with L384A, G392M
# modifications: Synthetic Polypeptide sequence of Variant No. 508 of mature Human GLA
# B5: 502 (protein)
# chain: B2 chain with L386S, G392M
# modifications: Synthetic Polypeptide sequence of Variant No. 502 of mature Human GLA
# B6: 503 (protein)
# chain: B2 chain with Q385C, G392M
# modifications: Synthetic Polypeptide sequence of Variant No. 503 of mature Human GLA
# B7: 506 (protein)
# chain: B2 chain with Q385W, G392M
# modifications: Synthetic Polypeptide sequence of Variant No. 506 of mature Human GLA
# B8: 509 (protein)
# chain: B2 chain with Q385T, G392M
# modifications: Synthetic Polypeptide sequence of Variant No. 509 of mature Human GLA
# B9: 507 (protein)
# chain: B2 chain with G392T
# modifications: Synthetic Polypeptide sequence of Variant No. 507 of mature Human GLA
# B10: 504 (protein)
# chain: B2 chain with M390S, G392M
# modifications: Synthetic Polypeptide sequence of Variant No. 504 of mature Human GLA
# Assay: HTP-analysis of supernatants pretreated with base (MUGal hydrolysis)
# Assay type: biochemical
# Conditions: activity of the variant/activity of Rd4BB (SEQ ID NO: 15); challenge at pH 9.65
# Summary of the method: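 GLA variants were secreted by transformed INVSc1 yeast grown 66-84 h at 30° C. Supernatants were exposed to neutral-to-basic buffers (pH 7.0-9.7) at 37° C for 1-18 h, then assayed with MUGal in acidic citrate/McIlvaine buffer, with fluorescence read after quenching.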
row,Molecule,Relative Activity of GLA Variants After Challenge at pH 9.65
1,B1,+ (0.5 to 1.5 relative activity over Rd4BB (SEQ ID NO: 15))
2,B2,+ (0.5 to 1.5 relative activity over Rd4BB (SEQ ID NO: 15))
3,B3,+ (0.5 to 1.5 relative activity over Rd4BB (SEQ ID NO: 15))
4,B4,− (<0.5 relative activity over Rd4BB (SEQ ID NO: 15))
5,B5,− (<0.5 relative activity over Rd4BB (SEQ ID NO: 15))
6,B6,+ (0.5 to 1.5 relative activity over Rd4BB (SEQ ID NO: 15))
7,B7,− (<0.5 relative activity over Rd4BB (SEQ ID NO: 15))
8,B8,+ (0.5 to 1.5 relative activity over Rd4BB (SEQ ID NO: 15))
9,B9,+ (0.5 to 1.5 relative activity over Rd4BB (SEQ ID NO: 15))
10,B10,+ (0.5 to 1.5 relative activity over Rd4BB (SEQ ID NO: 15))

# Assay: HTP-analysis of supernatants pretreated with acid (MUGal hydrolysis)
# Assay type: biochemical
# Conditions: activity of the variant/activity of Rd4BB (SEQ ID NO: 15); challenge at pH 3.7
# Summary of the method: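 Supernatants from INVSc1 yeast secreting GLA variants were challenged at 37° C. for 1-3 h in McIlvaine buffer at pH 3.3-4.3. Residual activity was then measured on 4 mM MUGal substrate stock at pH 4.8 with citrate buffer pH 4.3, over 30-180 min at 37° C. Reactions were quenched with sodium carbonate and read by fluorescence (Ex 355/Em 448 nm).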
row,Molecule,Relative Activity of GLA Variants After Challenge at pH 3.7
1,B1,− (<0.5 relative activity over Rd4BB (SEQ ID NO: 15))
2,B2,++ (>1.5 to 2.5 relative activity over Rd4BB (SEQ ID NO: 15))
3,B3,+ (0.5 to 1.5 relative activity over Rd4BB (SEQ ID NO: 15))
4,B4,− (<0.5 relative activity over Rd4BB (SEQ ID NO: 15))
5,B5,+ (0.5 to 1.5 relative activity over Rd4BB (SEQ ID NO: 15))
6,B6,+ (0.5 to 1.5 relative activity over Rd4BB (SEQ ID NO: 15))
7,B7,+ (0.5 to 1.5 relative activity over Rd4BB (SEQ ID NO: 15))
8,B8,+ (0.5 to 1.5 relative activity over Rd4BB (SEQ ID NO: 15))
9,B9,++ (>1.5 to 2.5 relative activity over Rd4BB (SEQ ID NO: 15))
10,B10,+ (0.5 to 1.5 relative activity over Rd4BB (SEQ ID NO: 15))

# Assay: HTP-analysis of yeast culture supernatants, no challenge (MUGal hydrolysis)
# Assay type: biochemical
# Conditions: activity of the variant/activity of Rd4BB (SEQ ID NO: 15)
# Summary of the method: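 GLA variants were expressed in INVSc1 yeast grown in SD-Ura broth with glucose at 30° C., and culture supernatants were collected after 66-84 h. Supernatant was mixed with McIlvaine buffer pH 4.8 and MUGal (2 mM stock) in 50 mM citrate, 200 mM KCl, pH 4.6, incubated at 37° C. for 30-180 minutes, then quenched with sodium carbonate.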
row,Molecule,Relative Activity of GLA Variants After No Challenge (NC)
1,B1,+ (0.5 to 1.5 relative activity over Rd4BB (SEQ ID NO: 15))
2,B2,+ (0.5 to 1.5 relative activity over Rd4BB (SEQ ID NO: 15))
3,B3,+ (0.5 to 1.5 relative activity over Rd4BB (SEQ ID NO: 15))
4,B4,− (<0.5 relative activity over Rd4BB (SEQ ID NO: 15))
5,B5,− (<0.5 relative activity over Rd4BB (SEQ ID NO: 15))
6,B6,+ (0.5 to 1.5 relative activity over Rd4BB (SEQ ID NO: 15))
7,B7,+ (0.5 to 1.5 relative activity over Rd4BB (SEQ ID NO: 15))
8,B8,+ (0.5 to 1.5 relative activity over Rd4BB (SEQ ID NO: 15))
9,B9,+ (0.5 to 1.5 relative activity over Rd4BB (SEQ ID NO: 15))
10,B10,+ (0.5 to 1.5 relative activity over Rd4BB (SEQ ID NO: 15))
